Source: patent US9969795

Biological target: recombinant influenza HA3-protein (from H3N2, Wyoming, March 2003, Sino Biological Inc.) (Influenza virus H3N2 (Wyoming, March 2003))
Test: SPR imaging (IBIS MX96), antibody captured on anti-human-IgG chip, HA3 1 ug/ml; global 1:1 fit in Scrubber2

B1: AT10_004 (antibody, V domains shown)
VH: QVQLVQSGAEVRKPGASVKVSCKASGYTFTRHGISWVRQAPGQGLEWMGWISAYTGDTDYAQKFQGRVTMTTDTSTNTAYMELRSLRSDDAAVYYCARLRLQGEVVVPPSQSNWFDPWGQGTLVTVSS
VL: EIVLTQSPATLSLYPGERATLSCRASQSVSRYLAWYQQKPGQAPRLLIYDASNRATGIPARFSGSGSGTDFTLTISSLEPEDFAVYYCQQRSNWLKITFGQGTRLEIKG
Binder B1 has a Kd of 0.07 nM, a koff of 1e-06 s⁻¹ and a kon of 14000 M⁻¹ s⁻¹.
